Assay results published in PMC7108746.

Target: transmembrane Crumbs2 (CRB2TM) (mouse (endogenous in E15.5 spinal cord sections)) (UniProt Q80YA8)
UniProt Q80YA8, sequence (Q80YA8 36-1282): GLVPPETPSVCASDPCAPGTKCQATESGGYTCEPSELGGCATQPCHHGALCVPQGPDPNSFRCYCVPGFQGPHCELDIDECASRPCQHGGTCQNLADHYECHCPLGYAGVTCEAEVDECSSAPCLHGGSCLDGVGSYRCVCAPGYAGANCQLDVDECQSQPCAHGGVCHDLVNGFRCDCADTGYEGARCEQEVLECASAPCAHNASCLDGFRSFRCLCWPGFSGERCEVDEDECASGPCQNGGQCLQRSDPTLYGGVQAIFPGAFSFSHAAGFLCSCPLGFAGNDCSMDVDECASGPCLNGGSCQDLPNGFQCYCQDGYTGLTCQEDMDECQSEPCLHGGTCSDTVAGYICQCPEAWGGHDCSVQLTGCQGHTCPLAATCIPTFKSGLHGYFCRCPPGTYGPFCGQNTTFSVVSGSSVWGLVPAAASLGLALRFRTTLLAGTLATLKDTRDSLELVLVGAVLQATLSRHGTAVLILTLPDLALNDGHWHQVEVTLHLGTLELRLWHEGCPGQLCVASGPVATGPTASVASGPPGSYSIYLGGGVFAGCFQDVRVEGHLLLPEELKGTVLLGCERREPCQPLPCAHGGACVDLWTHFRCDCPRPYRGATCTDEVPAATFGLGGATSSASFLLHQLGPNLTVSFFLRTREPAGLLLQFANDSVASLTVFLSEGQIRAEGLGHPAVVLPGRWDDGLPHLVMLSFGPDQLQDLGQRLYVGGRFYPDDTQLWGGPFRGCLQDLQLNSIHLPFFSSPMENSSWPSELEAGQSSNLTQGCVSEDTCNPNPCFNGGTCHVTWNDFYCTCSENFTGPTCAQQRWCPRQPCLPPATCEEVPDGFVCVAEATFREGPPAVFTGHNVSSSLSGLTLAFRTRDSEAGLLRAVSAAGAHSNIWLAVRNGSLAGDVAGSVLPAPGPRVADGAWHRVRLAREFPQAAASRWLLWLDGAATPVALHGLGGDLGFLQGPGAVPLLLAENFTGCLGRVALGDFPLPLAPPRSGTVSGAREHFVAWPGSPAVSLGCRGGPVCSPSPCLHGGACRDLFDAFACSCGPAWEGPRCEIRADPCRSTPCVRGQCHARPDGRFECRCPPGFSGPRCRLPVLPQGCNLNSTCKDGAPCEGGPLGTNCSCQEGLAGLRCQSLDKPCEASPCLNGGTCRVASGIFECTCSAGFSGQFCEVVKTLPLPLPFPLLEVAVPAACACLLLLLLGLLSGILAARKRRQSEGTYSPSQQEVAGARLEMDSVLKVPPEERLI

- apically localised ZO-1 in MDCK cells seeded at high density and cultured with high concentrations of CRB2S (77% of cells in control medium): 23%
Substance: secreted Crumbs2 (CRB2S), His-tagged (natural protein)
